Measured values taken from patent EP4714970A1 (Akeso Biopharma Co., Ltd., dated 2026).
Changes are numbered by the printed parent chain. In names and notes the source's numbering stands. Like-named read-outs stand apart in the source and are kept apart here.

Legend:
[1] = biological target: T1, CD73 on U87-MG cell membrane surface (UniProt P21589 27-549, limits assumed); test: cell-based or functional assay
T1 sequence (looked up): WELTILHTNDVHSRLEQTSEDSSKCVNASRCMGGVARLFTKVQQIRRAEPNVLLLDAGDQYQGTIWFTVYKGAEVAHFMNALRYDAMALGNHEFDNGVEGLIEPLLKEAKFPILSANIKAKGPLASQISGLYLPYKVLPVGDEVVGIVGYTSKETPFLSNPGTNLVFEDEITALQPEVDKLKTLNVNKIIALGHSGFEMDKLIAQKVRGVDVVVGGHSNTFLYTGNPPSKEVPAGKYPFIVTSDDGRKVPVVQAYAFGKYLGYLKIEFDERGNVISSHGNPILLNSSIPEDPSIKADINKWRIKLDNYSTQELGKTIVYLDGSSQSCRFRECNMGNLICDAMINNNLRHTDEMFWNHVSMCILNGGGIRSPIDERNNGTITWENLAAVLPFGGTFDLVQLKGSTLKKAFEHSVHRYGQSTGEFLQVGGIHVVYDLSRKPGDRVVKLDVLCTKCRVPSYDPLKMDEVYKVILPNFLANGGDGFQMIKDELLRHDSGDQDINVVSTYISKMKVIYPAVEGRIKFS

hNT5E(1-552)-His [2] = biological target: T2, hNT5E(1-552)-His (human, UniProt P21589 27-552); test: BLI (Fortebio), antigen on HIS1K sensor, antibody in solution, 37 C, 1:1 fit
T2 construct: also called NT5E-His; not shown: His tag
T2 sequence (looked up): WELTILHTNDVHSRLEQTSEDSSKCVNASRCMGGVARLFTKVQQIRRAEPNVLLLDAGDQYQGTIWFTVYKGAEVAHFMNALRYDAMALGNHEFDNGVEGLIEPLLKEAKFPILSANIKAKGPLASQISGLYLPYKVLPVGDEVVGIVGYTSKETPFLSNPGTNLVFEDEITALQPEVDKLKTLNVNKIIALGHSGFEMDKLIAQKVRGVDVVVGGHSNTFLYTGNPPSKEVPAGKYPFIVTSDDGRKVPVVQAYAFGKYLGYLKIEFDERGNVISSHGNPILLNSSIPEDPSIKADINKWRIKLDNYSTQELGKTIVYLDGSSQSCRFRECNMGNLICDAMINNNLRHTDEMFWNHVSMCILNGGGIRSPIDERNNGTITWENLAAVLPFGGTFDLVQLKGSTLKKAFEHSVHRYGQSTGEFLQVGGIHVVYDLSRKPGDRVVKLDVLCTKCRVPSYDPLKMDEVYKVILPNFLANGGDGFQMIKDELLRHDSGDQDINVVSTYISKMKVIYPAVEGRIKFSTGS

hNT5E(1-552)-His [3] = biological target: T2, hNT5E(1-552)-His; test: ELISA, NT5E-His coated 1 ug/mL
hNT5E(1-552)-His [4] = biological target: T2, hNT5E(1-552)-His; test: ELISA, NT5E-His coated 1 ug/mL; remark: listed apart in the source
hNT5E(1-552)-His [5] = biological target: T2, hNT5E(1-552)-His; test: ELISA, NT5E-His coated 1 ug/mL; remark: listed apart in the source
[6] = biological target: T1, CD73 on U87-MG cell membrane surface; test: flow cytometry on U87-MG cells
human LAG3-mG1Fc [7] = biological target: T3, human LAG3-mG1Fc (human; mouse, UniProt P18627 23-450, limits assumed); test: ELISA, LAG3-mG1Fc coated 2 ug/mL
T3 construct: Made by Akeso; also called huLAG3-mG1Fc; HuLAG3-mG1Fc; not shown: mouse IgG1 Fc (mG1Fc); limits not readable
T3 sequence (looked up): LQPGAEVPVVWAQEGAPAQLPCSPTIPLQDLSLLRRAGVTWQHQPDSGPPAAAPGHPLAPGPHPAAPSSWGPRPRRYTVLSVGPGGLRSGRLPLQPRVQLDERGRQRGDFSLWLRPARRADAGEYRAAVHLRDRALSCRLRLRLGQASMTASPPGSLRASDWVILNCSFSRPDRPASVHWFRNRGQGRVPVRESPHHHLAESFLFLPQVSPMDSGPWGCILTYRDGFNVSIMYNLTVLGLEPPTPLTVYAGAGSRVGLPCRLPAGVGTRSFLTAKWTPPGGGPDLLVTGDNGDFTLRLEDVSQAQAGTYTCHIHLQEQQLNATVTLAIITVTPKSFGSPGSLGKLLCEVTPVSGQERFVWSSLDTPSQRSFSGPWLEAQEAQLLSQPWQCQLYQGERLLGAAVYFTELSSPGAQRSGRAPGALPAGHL

human LAG3-mG1Fc [8] = biological target: T3, human LAG3-mG1Fc; test: BLI (Fortebio), antigen on AMC sensor, antibody in solution, 30 C, 1:1 fit
human LAG3-mG1Fc [9] = biological target: T3, human LAG3-mG1Fc; test: competitive flow cytometry, 3 nM LAG3-mG1Fc on Raji cells (competitor MHC II)
[10] = biological target: T4, human LAG3 on cell surface (293T-LAG3 cells; Jurkat-NFAT-PD1-LAG3 cells) (human, UniProt P18627 23-525); test: flow cytometry on 293T-LAG3 cells
T4 construct: whole, on cells; also called huLAG3FL
T4 sequence (looked up): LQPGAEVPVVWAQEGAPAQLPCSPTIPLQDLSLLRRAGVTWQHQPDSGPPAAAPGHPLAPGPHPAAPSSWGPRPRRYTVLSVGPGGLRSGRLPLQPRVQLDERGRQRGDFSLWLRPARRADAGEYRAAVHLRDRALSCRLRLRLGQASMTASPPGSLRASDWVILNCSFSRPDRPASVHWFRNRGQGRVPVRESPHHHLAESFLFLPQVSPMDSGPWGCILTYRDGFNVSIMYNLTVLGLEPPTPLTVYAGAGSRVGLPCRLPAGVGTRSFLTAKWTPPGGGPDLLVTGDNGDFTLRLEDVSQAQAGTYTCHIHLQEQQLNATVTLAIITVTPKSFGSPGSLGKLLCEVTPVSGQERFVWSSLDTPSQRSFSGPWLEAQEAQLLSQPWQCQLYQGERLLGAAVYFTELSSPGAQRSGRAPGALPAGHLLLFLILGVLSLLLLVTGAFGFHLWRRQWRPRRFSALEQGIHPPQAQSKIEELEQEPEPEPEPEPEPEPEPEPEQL

[11] = biological target: T4, human LAG3 on cell surface (293T-LAG3 …); test: flow cytometry on 293T-LAG3 cells; remark: listed apart in the source
human LAG3-mG1Fc [12] = biological target: T3, human LAG3-mG1Fc; test: competitive flow cytometry, 3 nM LAG3-mG1Fc on Raji cells (competitor MHC II); remark: listed apart in the source

B1: MEDI9447 (antibody, V domains shown)
VH: EVQLLESGGGLVQPGGSLRLSCAASGFTFSSYAYSWVRQAPGKGLEWVSAISGSGGRTYYADSVKGRFTISRDNSKNTLYLQMNSLRAEDTAVYYCARLGYGRVDEWGRGTLVTVSS
VL: QSVLTQPPSASGTPGQRVTISCSGSLSNIGRNPVNWYQQLPGTAPKLLIYLDNLRLSGVPDRFSGSKSGTSASLAISGLQSEDEADYYCATWDDSHPGWTFGGGTKLTVL
For B1, which “EC50 (nM), inhibition of CD73 enzyme activity on U87-MG cells” value [1] is on record?
The value was 0.152 nM.

What about the “Maximum inhibition rate (%) of CD73 enzyme activity on U87-MG cells” value [1] of the same binder?
The value was 58.3%.

B2: 19F3H2L3(hG1DM) (antibody, human IgG1, kappa, L234A L235A, V domains shown)
VH: QVQLVQSGAEVVKPGASVKVSCKASGYSFTGYTMNWVRQAPGQNLEWIGLINPYNAGTSYNQKFQGKVTLTVDKSTSTAYMELSSLRSEDTAVYYCARSEYRYGGDYFDYWGQGTTLTVSS
VL: DIVMTQSPSSLAVSVGERVTISCKSSQSLLNSSNQKNYLAWYQQKPGQAPKLLIYFASTRESGVPDRFSGSGSGTDFTLTISSLQAEDVAVYYCQQHYDTPYTFGGGTKLEIKR
notes: Humanized anti-CD73 IgG1 with L234A/L235A
With B2 as the binder, how does the Kd (hNT5E(1-552)-His [2]) read?
The Kd was 0.505 nM.

And the “Maximum signal height of analyte (nm)” value (hNT5E(1-552)-His [2])?
The value was 0.168 nm.

And the “S E (kdis)” value (hNT5E(1-552)-His [2])?
The value was 3.54e-06 s⁻¹.

And the EC50 (hNT5E(1-552)-His [3])?
Its EC50 is 0.011 nM.

And the EC50 (hNT5E(1-552)-His [4])?
Its EC50 is 0.011 nM.

What about the EC50 (hNT5E(1-552)-His [5]) of the same binder?
Its EC50 is 0.015 nM.

What about the EC50 [6] of the same binder?
Its EC50 is 6.06 nM.

B3: H9L8(hG4WT) (antibody, human IgG4 S228P, kappa, V domains shown)
VH: QVQLQQWGAGLLKPSETLSLTCAVYGGSISDYYWNWIRQPPGKGLEWIGEINYRGTTNSNPSLKSRVTLSLDTSKNQFSLKLRSVTAADTAVYYCAFGYSDYEYDWFDPWGQGTLVTVSS
VL: EIVLTQSPATLSLSPGERATLSCRASQTISSYLAWYQQKPGQAPRLLIYDASNRATGIPARFSGSGSGTDFTLTISSLEPEDFAVYYCQQRSNWPITFGQGTNLEIKR
notes: Humanized anti-LAG3 IgG4 (wild type), kappa
Which results are given for B3?
EC50 (human LAG3-mG1Fc [7]): 0.123 nM; Kd (human LAG3-mG1Fc [8]): 0.3 nM; Maximum signal height of analyte (nm) (human LAG3-mG1Fc [8]): 0.878 nm; S E (kdis) (human LAG3-mG1Fc [8]): 2.94e-06 s⁻¹; S E (kon) (human LAG3-mG1Fc [8]): 2330 M⁻¹ s⁻¹; koff (human LAG3-mG1Fc [8]): 0.000121 s⁻¹; kon (human LAG3-mG1Fc [8]): 405000 M⁻¹ s⁻¹; EC50 (human LAG3-mG1Fc [9]): 1.46 nM; EC50 [10]: 0.501 nM; EC50 [11]: 4.86 nM; EC50 (human LAG3-mG1Fc [12]): 1.44 nM

B4: H9L9(hG4WT) (antibody, human IgG4 S228P, kappa, V domains shown)
VH: B3 VH
VL: B3 VL with A51G, I96L
notes: as for B3
How did the EC50 (human LAG3-mG1Fc [7]) turn out when B4 was run?
The EC50 was 0.129 nM.

And the EC50 (human LAG3-mG1Fc [9])?
Its EC50 is 1.48 nM.

And the EC50 [11]?
Its EC50 is 4.53 nM.

B5: H9L10(hG4WT) (antibody, human IgG4 S228P, kappa, V domains shown)
VH: B3 VH
VL: B3 VL with T28S, A51G
notes: Humanized anti-LAG3 IgG4 (wild type), kappa; also called HIL10(hG4WT)
With B5 as the binder, how does the EC50 (human LAG3-mG1Fc [7]) read?
The EC50 was 0.14 nM.

And the EC50 (human LAG3-mG1Fc [9])?
The EC50 was 1.44 nM.

What about the EC50 [11] of the same binder?
The EC50 was 3.92 nM.

B6: CPI-006 (antibody, V domains shown)
VH: QVQLVQSGAEVEKPGASVKVSCKASGYTFTSYWITWVRQAPGQGLEWMGDIYPGSGNTNYNEKFKTRVTITADKSTSTAYMELSSLRSEDTAVYYCAKEGGLTTEDYALDYWGQGTLVTVSS
VL: EIVLTQSPATLSLSPGERATLSCRASKNVSTSGYSYMHWYQQKPGQAPRLLIYLASNLESGIPPRFSGSGYGTDFTLTINNIESEDAAYYFCQHSRELPFTFGQGTKVEIKR
With B6 as the binder, how does the EC50 [6] read?
The EC50 was 8.47 nM.
